Assay type in all cases: cell-based, murine
In one test the test system is UCP1 protein. The test can be described thus: UCP1 protein in WT-1 cells (immunofluorescent staining, Western blot). Particulars: for UCP1 protein, immunofluorescent staining: relative to control cells. Here is the method: Cells were harvested in lysis buffer (50 mM HEPES, 137 mM NaCl, 1 mM MgCl2, 1 mM CaCl2, 10 mM Na2P2O7, 10 mM NaF, 2 mM EDTA, 10% glycerol, 1% Igepal CA-630, 2 mM vanadate, 10 μg/ml of leupeptin, 10 μg/ml of aprotinin, 2 mM phenylmethylsulfonyl fluoride; pH 7.4). After lysis, lysates were clarified by centrifugation at 12,000×g for 20 min at 4° C., the amount of protein in the supernatants was determined by the Bradford Protein Assay (Bio-Rad Laboratories, Hercules, Calif.). Proteins were directly solubilized in Laemmli sample buffer. Equal amounts of lysates were separated by sodium dodecyl sulfate-polyacrylamide gel electrophoresis and transferred to Immobolin-P membranes. Membranes were blocked overnight at 4° C. and incubated with the indicated antibody for 2 hours at room temperature. Specifically bound primary antibodies were detected with peroxidase-coupled secondary antibody and enhanced chemiluminescence (ECL, Amersham Biosciences, Piscataway, N.J.).
(§1) The effect of FGF6 on differentiation of WT-1 murine brown preadipocytes was also examined. WT-1 cells can be induced to undergo brown adipocyte differentiation, characterized by lipid accumulation and expression of adipogenic and brown fat markers, as described above (Klein et al. (1999) J Biol Chem 274:34795; Tseng et al. (2005) Nat Cell Biol 7:601). WT-1 cells were treated with FGF6 in growth media (DMEM+10% FBS), a vehicle control (“control” or “C” referred to in FIGS. 3A-D), or induction media (“induction” or “I” referred to in FIGS. 3A-D) as described above for seven days. Following the treatment, cells were examined for the color of the culture media in combination with oil Red O staining, expression of adipogenic markers, expression of brown fat markers, immunofluorescent staining of cells with UCP1 and DPAI, and Western blot analysis to determine the presence of UCP1 and β-tubulin. The results are described in FIGS. 3A to 3D.
FGF2, FGF6 and FGF9 were used at a dosage of 200 ng/mL. Cells were stained using immunofluorescent stains for UCP1 and DAPI (which binds to DNA).
In general terms: Immunoblotting shows a protein as a band on a membrane.

A further test deals with UCP1. The test is described as follows: UCP1 mRNA expression (Q-RT-PCR) in WT-1 brown preadipocytes. As for the experimental part:
Total RNA was isolated with QIAzol lysis reagent (Qiagen, Valencia, Calif.) and purified by RNeasy Mini columns (Qiagen) following the manufacture's instructions. cDNA was prepared from total RNA using the Advantage RT-PCR kit (BD Biosciences, Palo Alto, Calif.) according to manufacturer's instructions. Diluted cDNA was used in a PCR reaction with SYBR Green Master Mix (Applied Biosystems, Foster City, Calif.) and primers specifically designed for detection of the gene of interest. PCR reactions were run in duplicate for each sample and quantitated in the ABI Sequence Detection System (Applied Biosystems). Data were expressed as arbitrary units after normalization to levels of expression of internal controls for each sample. Sequences of primers for specific genes are each obtained from the published literature or designed using publically available gene sequence databases. Unless otherwise indicated, gene expression data described in the examples below was obtained using QPCR.
as §1
UCP1 mRNA expression in brown adipocyte cells was determined at FGF6 concentrations ranging from 0 to 300 ng/ml in the absence of induction cocktail.
In order to determine the length of time necessary to induce UCP1 expression upon exposure to of cells to FGF6, an experiment was performed whereby FGF6 was administered to brown preadipocytes at a concentration of 200 ng/ml and UCP1 expression was determined. FGF21 and a control were also used in the time course experiment. FGF21, a member of the endocrine FGF ligands that has been implicated in the browning of white fat (Fisher F. M. et al., Genes Dev. 26:271-281, 2012). […] FGF6 could acutely induce a significant increase of UCP1 expression as early as 4 hours after a 200 ng/ml dose, as described in FIG. 4B. At 24 hours, the fold-induction of UCP1 mRNA by FGF6 reached 700-fold higher than the untreated cells, as described in FIG. 4B.
To assess FGF6's role in the regulation of mitochondrial activity, FGF6 was stably expressed in WT-1 brown preadipocytes and 3T3-F442A white preadipocytes. Stable cells were generated by viral infection followed by drug selection.
FGF2, FGF6 and FGF9 were used at a dosage of 50 ng/mL, 100 ng/mL, 200 ng/mL or 300 ng/mL. FGF21 was used at the dosage of 50 ng/ml and 500 ng/mL. The concentration of BMP7 was 3.3 nM. RNA was isolated and UCP1 and PPARγ expression levels were evaluated by quantitative reverse transcription polymerase chain reaction (Q-RT-PCR) analysis after 24 hours (i.e., 1 day) (FIG. 14A), 2 days (FIG. 14B), 5 days (FIG. 14C) and 7 days (FIG. 14D) of treatment. All experiments were performed triplicate and the data are presented as mean+/−SEM.
FGF2, FGF6 and FGF9 were used at a dosage of 200 ng/mL. FGF21 was used at a dosage of 500 ng/mL. The concentration of BMP7 was 3.3 nM. mRNA was isolated and UCP1 and PPARγ expression levels were evaluated by quantitative reverse transcription polymerase chain reaction (Q-RT-PCR) analysis after 24 hours (i.e., 1 day), 2 days, 5 days and 7 days of treatment (FIG. 15). […]

For a further test, the system named is WT-1 brown preadipocytes. The test can be described thus: Cell proliferation (MTT assay) in WT-1 brown preadipocytes. To be noted: 200 ng/ml; 24 and 72 hours. As for the experimental part: FIGS. 4A-4C graphically depict FGF6 induction of UCP1 expression in brown preadipocytes in a dose-dependent and time-regulated manner. Specifically, FIG. 4A depicts a dose-response curve of UCP1 expression by FGF6 at day 7. Numbers above curve indicate fold-increase relative to vehicle control. FIG. 4B depicts the fold-induction of UCP1 by vehicle control (“C”), FGF6 (“F6”) or FGF21 (“F21”) within 24 hours of treatment. FIG. 4C depicts a time-course of UCP1 expression induced by 200 ng/ml of FGF6, compared with cells differentiated in regular induction media. Numbers above curves indicate fold-induction relative to day 0. FIG. 4D depicts the effect of FGF6 on cell proliferation (measured by MTT assay) at 24 and 72 hours.
The effect of FGF6 on cell proliferation was also evaluated.
In general terms: Tetrazolium assays rely on reduction of a dye to a coloured formazan, in cell work by metabolically active cells.

The mark [1] stands for this setting: 0 to 300 ng/ml, absence of induction cocktail, day 7.

“Also recorded” adds a separate entry of the source.

B1: FGF6: fibroblast growth factor 6; recombinant human FGF from R&D Systems, or mouse FGF6 cDNA overexpressed by lentiviral vector (protein)
chain: KRQRRLYCNVGIGFHLQVLPDGRISGTHEENPYSLLEISTVERGVVSLFGVRSALFVAMNSKGRLYATPSFQEECKFRETLLPNNYNAYESDLYQGTYIALSKYGRVKRGSKVSPIMTVTHFLPRI
Regarding B1, the “UCP1 protein, immunofluorescent staining” value in the test on UCP1 protein (WT-1, 200 ng/mL with insulin 20 nM and T3 1 nM) is “significant levels of staining”. In the test on UCP1 protein (WT-1, seven days), the “UCP1 protein, Western blot” value is “present” and the “UCP1 protein, immunofluorescent staining” value is reported as “significant levels of staining”. In the test with UCP1 (setting [1]), the “FGF6 concentration at which UCP1 gene expression plateaued” value was “about 200 ng/ml” and the “UCP1 gene expression, dose response” value was “dose-dependent manner”. For the same molecule, the “earliest time of significant increase of UCP1 expression” value with UCP1 (200 ng/ml) is 4 h. Further, the “fold-induction of UCP1 mRNA over untreated cells” value in the test with UCP1 (200 ng/ml, 24 hours) stood at 700 fold. The “UCP1 levels with prolonged exposure” value in the test with UCP1 (200 ng/ml, time course) is “continued to rise”. For the same molecule, the UCP1 expression level result in the test with UCP1 (50-300 ng/mL with insulin and T3, 1, 2, 5 and 7 days, dose-responsive) was “very high levels of UCP1”. In addition, in the test with UCP1 (FGF2, FGF6, FGF9 200 ng/mL, FGF21 500 ng/mL, with insulin and T3, 1, 2, 5, 7 days), the “UCP1 expression level, time course” value is given as “very high levels of UCP1”. The “UCP1 mRNA expression” value in the test on UCP1 (WT-1, 24 hours, vs vehicle) is “significantly induced”. Moreover, in the test on UCP1 (WT-1, growth media, seven days, vs control or induction media), the “UCP1 mRNA expression” value is reported as “significantly increased; also recorded: extremely high levels”. The “UCP1 expression over basal level” value with UCP1 (constitutive overexpression of FGF6 in WT-1) is “greatly increased; also recorded: marked increases”. In addition, the “effect on cell proliferation” value in the test on WT-1 brown preadipocytes is listed as “virtually no effect”.
